Data as given in patent US20040086512A1 (THOMAS JEFFERSON UNIVERSITY, published 2004).

B1: VMI1 peptide SNFASITTPRPH (peptide)
peptide: SNFASITTPRPH
notes: 12-mer with PXP motif from the Ph.D.-12 library; also called ID; NO: 5
B2: VMI2 peptide WPTNPTTVPVPS (peptide)
peptide: WPTNPTTVPVPS
notes: 12-mer with PXP motif from the Ph.D.-12 library; also called ID; NO: 6
B3: VMI4 peptide SLHWPVSHPPPP (peptide)
peptide: SLHWPVSHPPPP
notes: 12-mer with PXP motif from the Ph.D.-12 library; also called ID; NO: 8
B4: VMI5 peptide SVSVGMKPSPRP (peptide)
peptide: SVSVGMKPSPRP
notes: 12-mer with PXP motif; also called ID; NO: 9
B5: VMI6 peptide WHSQRLSPVPPA (peptide)
peptide: WHSQRLSPVPPA
notes: 12-mer with PXP motif from the Ph.D.-12 library; also called ID; NO: 10
B6: VMI7 peptide SNQGGSPLPRSV (peptide)
peptide: SNQGGSPLPRSV
notes: 12-mer with PXP motif; also called VM17; ID; NO: 11
B7: VMI8 peptide SEPHLPFPVLPH (peptide)
peptide: SEPHLPFPVLPH
notes: 12-mer with PXP motif from the Ph.D.-12 library; also called ID; NO: 12
B8: VMI9 peptide LPLPAPSFHRTT (peptide)
peptide: LPLPAPSFHRTT
notes: 12-mer with PXP motif; also called ID; NO: 13
B9: VMI10 peptide YPLPHPMWSMLP (peptide)
peptide: YPLPHPMWSMLP
notes: 12-mer with PXP motif from the Ph.D.-12 library; also called ID; NO: 14
B10: VMI11 peptide TMTPPPTSVRGT (peptide)
peptide: TMTPPPTSVRGT
notes: 12-mer with PXP motif from the Ph.D.-12 library; also called ID; NO: 15
B11: VMI12 peptide TPLPTIRGDTGT (peptide)
peptide: TPLPTIRGDTGT
notes: 12-mer with PXP motif from the Ph.D.-12 library; also called ID; NO: 16
B12: VMI13 peptide GPPPHHRDYHGP (peptide)
peptide: GPPPHHRDYHGP
notes: 12-mer with PXP motif from the Ph.D.-12 library; also called ID; NO: 17
B13: VMI14 peptide YPAPIKVLLPNS (peptide)
peptide: YPAPIKVLLPNS
notes: 12-mer with PXP motif from the Ph.D.-12 library; also called ID; NO: 18
B14: VMI15 peptide SPYPMALFPLHN (peptide)
peptide: SPYPMALFPLHN
notes: 12-mer with PXP motif from the Ph.D.-12 library; also called ID; NO: 19
B15: VMI16 peptide SPYPSWSTPAGR (peptide)
peptide: SPYPSWSTPAGR
notes: 12-mer with PXP motif from the Ph.D.-12 library; also called ID; NO: 20

Biological target: T1, GST-Vif fusion protein (HIV-1 (HIV-1NL4-3), UniProt P12504 1-192)
T1 construct: range 1-192; Expressed from pGEX in BL21 E. coli, held on glutathione-agarose beads or coated on ELISA plates; also called purified HIV-1 Vif protein; not shown: glutathione-S-transferase encoded by the pGEX vector
T1 sequence (P12504 whole entry, the tested form may be a part): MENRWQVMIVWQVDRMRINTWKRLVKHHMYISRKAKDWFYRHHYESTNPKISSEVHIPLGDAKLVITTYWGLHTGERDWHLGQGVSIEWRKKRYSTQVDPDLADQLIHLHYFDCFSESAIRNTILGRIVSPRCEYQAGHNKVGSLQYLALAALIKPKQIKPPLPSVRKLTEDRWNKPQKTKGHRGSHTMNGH
Experiment: phage peptide display, phage ELISA on coated GST-Vif
Experimental: One hundred and fifty μl of 100 μg/ml GST and GST-Vif in 0.1 M NaHCO₃ (pH 8.6) were coated on 96 well microtiter plates respectively and incubated at 4° C. overnight. The plates were blocked with blocking buffer (0.1 M NaHCO₃, pH 8.6, 5 mg/ml BSA) for 2 hr at room temperature. […] After washing, HRP-conjugated anti-M13 antibody was added to bind the phages. After washing, the substrate was added and color development was performed. […] OD at 405 nm equal or larger than 0.15 was considered as positive.

Binder	binding result
B1	binds
B2	binds
B3	binds
B4	binds
B5	binds
B6	binds
B7	binds
B8	binds
B9	binds
B10	binds
B11	binds
B12	binds
B13	binds
B14	binds
B15	binds
